Measured values as given in US20260242478A1 (published 2026).
Where no end group is shown, it is not given here.

B1: Phage-19 (peptide, not shown: large carriers)
peptide: MDWCPIDLWNECFF
modifications: cysteine pairing not given here; also: phage-displayed pIII fusion, pIII and linker not given here
notes: Clonal phage supernatant
B2: Phage-26 (peptide, not shown: large carriers)
peptide: MDWCPRDLWHECFA
modifications: cysteine pairing not given here; also: phage-displayed pIII fusion, pIII and linker not given here
notes: Clonal phage supernatant
B3: Phage-9 (peptide, not shown: large carriers)
peptide: MDWCPRERWVDCFF
modifications: cysteine pairing not given here; also: displayed on phage as fusion to pIII, linker not given here
notes: Clonal phage supernatant
B4: Phage-25 (peptide, not shown: large carriers)
peptide: MDWCPRDLWDLCFA
modifications: cysteine pairing not given here; also: phage-displayed pIII fusion, pIII and linker not given here
notes: Clonal phage supernatant
B5: Phage-30 (peptide, not shown: large carriers)
peptide: MDWCPRDMWDECFA
modifications: cysteine pairing not given here; also: peptide displayed as fusion to phage pIII
notes: Clonal phage supernatant
B6: Phage-27 (peptide, not shown: large carriers)
peptide: MDWCPRDLWHLCFS
modifications: cysteine pairing not given here; also: displayed on phage as fusion to pIII, linker and pIII sequence not given here
notes: Clonal phage supernatant
B7: Phage-534 (peptide)
peptide: YCDGHSPLYMWKCL
modifications: cysteine pairing not given here; also: displayed on phage as fusion to pIII, linker, pIII sequence and order not given here
notes: Clonal phage supernatant; not shown: pIII filament protein of the bacteriophage to which the peptide is fused
B8: Phage-529 (peptide)
peptide: YCQGHLPMYMAKCL
modifications: cysteine pairing not given here; also: displayed on phage as fusion to pIII, linker, pIII sequence and order not given here
notes: as for B7
B9: Phage-532 (peptide)
peptide: YCQGHLPMYMEKCL
modifications: cysteine pairing not given here; also: displayed on phage as fusion to pIII, linker, pIII sequence and order not given here
notes: as for B7
B10: Phage-527 (peptide)
peptide: YCDGHLPEYMSKCL
modifications: cysteine pairing not given here; also: displayed on phage as fusion to pIII, linker, pIII sequence and order not given here
notes: as for B7
B11: Phage-536 (peptide)
peptide: YCDGHLPIYMSKCL
modifications: cysteine pairing not given here; also: displayed on phage as fusion to pIII, linker, pIII sequence and order not given here
notes: as for B7
B12: Phage-530 (peptide)
peptide: YCDGHLPEYMMKCL
modifications: cysteine pairing not given here; also: displayed on phage as fusion to pIII, linker, pIII sequence and order not given here
notes: as for B7
B13: Phage-539 (peptide)
peptide: YCEGHLPEYMLKCL
modifications: cysteine pairing not given here; also: displayed on phage as fusion to pIII, linker, pIII sequence and order not given here
notes: as for B7
B14: Phage-526 (peptide)
peptide: YCEGHSPEYMAKCL
modifications: cysteine pairing not given here; also: displayed on phage as fusion to pIII, linker, pIII sequence and order not given here
notes: as for B7
B15: Phage-538 (peptide)
peptide: YCDGHLPEYREKCF
modifications: cysteine pairing not given here; also: displayed on phage as fusion to pIII, linker, pIII sequence and order not given here
notes: as for B7
B16: Phage-535 (peptide)
peptide: YCDGHLPMYMQKCL
modifications: cysteine pairing not given here; also: displayed on phage as fusion to pIII, linker, pIII sequence and order not given here
notes: as for B7
B17: Phage-528 (peptide)
peptide: YCDGHLPQYMAKCL
modifications: cysteine pairing not given here; also: displayed on phage as fusion to pIII, linker, pIII sequence and order not given here
notes: as for B7
B18: Phage-533 (peptide)
peptide: YCEGHLPQYMAKCL
modifications: cysteine pairing not given here; also: displayed on phage as fusion to pIII, linker, pIII sequence and order not given here
notes: as for B7
B19: Phage-531 (peptide)
peptide: YCDGHSPMYILKCL
modifications: cysteine pairing not given here; also: displayed on phage as fusion to pIII, linker, pIII sequence and order not given here
notes: as for B7
B20: Phage-537 (peptide)
peptide: YCEGHSWANLGKCL
modifications: cysteine pairing not given here; also: displayed on phage as fusion to pIII, linker, pIII sequence and order not given here
notes: as for B7

The binders below were run against T1, Anti-CD28 Fab (SEQ ID NOs: 696, 697) (assay: phage ELISA; Fab-coated wells pre-incubated with CD28 antigen as competitor, anti-M13-HRP detection).
T1 construct: In the phage ELISA the Fab was biotinylated and captured on neutravidin coated plates
T1 sequence (VH, as listed by the source, chain 1 of 2): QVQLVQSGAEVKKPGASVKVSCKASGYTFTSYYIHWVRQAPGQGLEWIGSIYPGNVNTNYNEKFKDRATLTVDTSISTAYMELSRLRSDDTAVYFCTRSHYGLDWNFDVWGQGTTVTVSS
T1 sequence (VL, as listed by the source, chain 2 of 2): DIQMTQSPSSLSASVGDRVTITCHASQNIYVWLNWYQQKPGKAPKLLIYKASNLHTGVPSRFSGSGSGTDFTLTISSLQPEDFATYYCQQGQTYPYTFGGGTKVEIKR
Procedure: (§1) After panning, phage infected bacteria were plated out and colonies picked into 96 well blocks. Clonal phage was then amplified and separated from bacterial cells via centrifugation.
(§2) Clonal phage were harvested as crude supematants and screened via standard ELISAs. […] Prior to the addition of clonal phage, wells were incubated with blocking buffer and CD28 antigen or blocking buffer alone. Without washing or aspirating, clonal phage supematants were then added to the wells and incubated for a short time. Wells were then washed followed by detection of bound phage using a horse radish conjugated anti-M13 antibody. Clonal phage of interest were then sent for sequence analysis.

| Binder | Phage binding ELISA, Anti-CD28 Fab signal in the presence of CD28 |
| --- | --- |
| YCEGHLSQYMQKCL (Tested as clonal phage supernatant) [Phage-709] | 0.09 |

The binders below were run against T2, anti-CD28 scFv (VH - linker 1 - VL) (biotinylated (site not stated)) (assay: phage ELISA; biotinylated anti-CD28 scFv on neutravidin plate, clonal phage supernatant, anti-M13-HRP detection;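 note: before phage addition, wells were pretreated with soluble CD28 protein in blocking buffer, or with blocking buffer only as the comparison, then phage were added without washing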).
T2 sequence (scFv, as listed by the source): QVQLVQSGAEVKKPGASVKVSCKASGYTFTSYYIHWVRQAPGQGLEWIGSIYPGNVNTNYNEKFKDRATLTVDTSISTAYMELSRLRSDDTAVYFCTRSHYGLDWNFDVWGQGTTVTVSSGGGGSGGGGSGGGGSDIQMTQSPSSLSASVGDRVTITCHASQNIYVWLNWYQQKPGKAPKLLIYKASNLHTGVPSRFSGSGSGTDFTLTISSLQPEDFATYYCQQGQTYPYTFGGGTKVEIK

| Binder | CD28 scFv signal |
| --- | --- |
| MDWCPMHLWHQCFN (peptide, not shown: large carriers, Clonal phage supernatant) [Phage-39] | 2.56 |
| MDWCPLYLWNECFN (peptide, not shown: large carriers, Clonal phage supernatant) [Phage-24] | 2.61 |
| B1 | 2.52 |
| B2 | 2.71 |
| B3 | 2.04 |
| MDWCPRDLWSECFF (peptide, not shown: large carriers, Clonal phage supernatant) [Phage-28] | 2.57 |
| MDWCPIYLWSECFN (peptide, not shown: large carriers, Clonal phage supernatant) [Phage-21] | 2.63 |
| MDWCPIHLWHVCFN (peptide, not shown: large carriers, cysteine pairing not given here; also: displayed as fusion to phage pIII, Clonal phage supernatant) [Phage-20] | 2.53 |
| B4 | 2.7 |
| B5 | 2.59 |
| MDWCPRDMWSECFA (peptide, not shown: large carriers, Clonal phage supernatant) [Phage-31] | 2.7 |
| B6 | 2.59 |

The binders below were run against T3, Anti-CD28 Fab (SEQ ID NOs: 696, 697) (assay: phage binding ELISA; biotinylated Fab on neutravidin plate, clonal phage supernatant, anti-M13 HRP;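 note: clones picked after panning, added to wells pre-incubated with CD28 antigen or with blocking buffer only, no wash before phage addition, bound phage read after washing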).
T3 construct: Biotinylated and captured on neutravidin coated plates in the phage ELISA
T3 sequence (VH, as listed by the source, chain 1 of 2): as the sequence (VH, as listed by the source, chain 1 of 2) above
T3 sequence (VL, as listed by the source, chain 2 of 2): as the sequence (VL, as listed by the source, chain 2 of 2) above
Procedure: as §1, §2

| Binder | Anti-CD28 Fab (SEQ ID NOs: 696, 697) signal |
| --- | --- |
| B7 | 2.34 |
| B8 | 2.34 |
| B9 | 2.34 |
| B10 | 2.35 |
| B11 | 2.32 |
| B12 | 2.34 |
| B13 | 2.32 |
| B14 | 2.35 |
| B15 | 2.32 |
| B16 | 2.33 |
| B17 | 2.35 |
| B18 | 2.34 |
| B19 | 2.34 |
| B20 | 2.32 |

These binders were tested against T1, Anti-CD28 Fab (SEQ ID NOs: 696, 697) (assay: phage ELISA; biotinylated anti-CD28 Fab on neutravidin plates, bound phage detected with anti-M13-HRP).
Procedure: as §1, §2

| Binder | Phage binding ELISA, Anti-CD28 Fab signal |
| --- | --- |
| YCEGHLSQYMQKCL (Tested as clonal phage supernatant) [Phage-709] | 2 |

The binders below were run against T2, anti-CD28 scFv (VH - linker 1 - VL) (assay: same phage ELISA, wells pre-incubated with soluble CD28 (competitor)).
Procedure: Clonal phage were harvested as crude supernatants and screened via standard enzyme linked immunosorbent assays (ELISAs). […] Prior to the addition of clonal phage, wells were incubated with blocking buffer and CD28 soluble protein or blocking buffer alone. Without washing or aspirating, clonal phage supernatants were then added to the wells and incubated for a short time. Wells were then washed followed by detection of bound phage using a horse radish peroxidase conjugated anti-M13 antibody.

| Binder | CD28 scFv signal in presence of CD28 |
| --- | --- |
| MDWCPMHLWHQCFN (peptide, not shown: large carriers, Clonal phage supernatant) [Phage-39] | 0.299 |
| MDWCPLYLWNECFN (peptide, not shown: large carriers, Clonal phage supernatant) [Phage-24] | 0.247 |
| B1 | 0.187 |
| B2 | 0.277 |
| B3 | 0.489 |
| MDWCPRDLWSECFF (peptide, not shown: large carriers, Clonal phage supernatant) [Phage-28] | 0.218 |
| MDWCPIYLWSECFN (peptide, not shown: large carriers, Clonal phage supernatant) [Phage-21] | 0.513 |
| MDWCPIHLWHVCFN (peptide, not shown: large carriers, cysteine pairing not given here; also: displayed as fusion to phage pIII, Clonal phage supernatant) [Phage-20] | 0.167 |
| B4 | 0.219 |
| B5 | 0.25 |
| MDWCPRDMWSECFA (peptide, not shown: large carriers, Clonal phage supernatant) [Phage-31] | 0.293 |
| B6 | 0.29 |

What follows are binders tested against T3, Anti-CD28 Fab (SEQ ID NOs: 696, 697) (assay: phage binding ELISA; Fab wells pre-incubated with CD28 antigen as competitor, anti-M13 HRP).
Procedure: as §1, §2

| Binder | Anti-CD28 Fab signal in the presence of CD28 |
| --- | --- |
| B7 | 0.08 |
| B8 | 0.08 |
| B9 | 0.09 |
| B10 | 0.14 |
| B11 | 0.08 |
| B12 | 0.11 |
| B13 | 0.09 |
| B14 | 0.07 |
| B15 | 0.07 |
| B16 | 0.11 |
| B17 | 0.15 |
| B18 | 0.14 |
| B19 | 0.08 |
| B20 | 0.08 |
